# Reference: US20250122306A1 (SUTRO BIOPHARMA, published 2025)
# Where a chain is given by its changes, count along the chain named.
# B1: SRP2900-F05 (antibody, IgG1, V domains shown)
# VH: EVQLVESGGGLVQPGGSLRLSCAASGFTINDYVIHWVRQAPGKGLEWVGYIDPSNGYTYYADSVKGRFTISADTSKNTAYLQMNSLRAEDTAVYYCARDDQSLSSPFDYWGQGTLVTVSS
# VL: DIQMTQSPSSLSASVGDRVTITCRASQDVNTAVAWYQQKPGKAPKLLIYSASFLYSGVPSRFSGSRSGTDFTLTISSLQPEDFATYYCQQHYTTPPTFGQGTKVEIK
# B2: SRP2900-H01 (antibody, IgG1, V domains shown)
# VH: B1 VH with N30F, V33I, D100P, L103V, S104G, P106E
# VL: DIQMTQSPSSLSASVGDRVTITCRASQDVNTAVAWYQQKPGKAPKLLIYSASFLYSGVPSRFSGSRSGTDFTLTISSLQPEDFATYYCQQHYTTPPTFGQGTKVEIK
# B3: SRP2900-G04 (antibody, IgG1, V domains shown)
# VH: B1 VH with I29T, N30R, D100P
# VL: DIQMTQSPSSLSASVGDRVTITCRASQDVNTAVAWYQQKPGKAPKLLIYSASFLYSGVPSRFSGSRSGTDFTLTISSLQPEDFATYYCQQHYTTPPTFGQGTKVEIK
# B4: SRP2900-G06 (antibody, IgG1, V domains shown)
# VH: B1 VH with N30S, V33I
# VL: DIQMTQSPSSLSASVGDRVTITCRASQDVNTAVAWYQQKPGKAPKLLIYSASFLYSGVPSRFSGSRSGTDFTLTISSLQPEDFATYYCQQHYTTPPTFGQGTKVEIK
# B5: SRP2900-H02 (antibody, IgG1, V domains shown)
# VH: B1 VH with N30F, V33I, D100I, L103V, S105G, P106E
# VL: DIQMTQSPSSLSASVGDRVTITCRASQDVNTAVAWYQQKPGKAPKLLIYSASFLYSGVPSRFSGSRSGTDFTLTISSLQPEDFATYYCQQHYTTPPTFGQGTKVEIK
# B6: SRP2900-G09 (antibody, IgG1, V domains shown)
# VH: B1 VH with N30S, V33I, D100P, S104T
# VL: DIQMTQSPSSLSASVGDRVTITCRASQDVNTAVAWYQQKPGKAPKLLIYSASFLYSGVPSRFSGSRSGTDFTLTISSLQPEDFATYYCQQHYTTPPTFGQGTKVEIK
# B7: SRP2900-G01 (antibody, IgG1, V domains shown)
# VH: B1 VH with N30F, V33T, Y59F, M83V, D100I, L103V, S105G, P106E
# VL: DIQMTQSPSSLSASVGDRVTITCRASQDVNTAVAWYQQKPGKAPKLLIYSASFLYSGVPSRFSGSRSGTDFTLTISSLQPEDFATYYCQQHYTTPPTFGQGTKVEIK
# B8: SRP2900-G08 (antibody, IgG1, V domains shown)
# VH: B1 VH with P14L, N30G, D31G, V33I, D100I, L103V, S105G, P106E
# VL: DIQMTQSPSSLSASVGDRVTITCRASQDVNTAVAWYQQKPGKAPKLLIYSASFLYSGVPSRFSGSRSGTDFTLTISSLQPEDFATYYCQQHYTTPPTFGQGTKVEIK
# B9: SRP2900-F10 (antibody, IgG1, V domains shown)
# VH: B1 VH with N30S, D100P, S104F, S105Y
# VL: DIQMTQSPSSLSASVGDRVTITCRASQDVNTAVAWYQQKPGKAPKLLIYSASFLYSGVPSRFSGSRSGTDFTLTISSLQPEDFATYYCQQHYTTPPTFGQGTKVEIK
# B10: SRP2900-H03 (antibody, IgG1, V domains shown)
# VH: B1 VH with N30Y, V33I, Y60H, D100P
# VL: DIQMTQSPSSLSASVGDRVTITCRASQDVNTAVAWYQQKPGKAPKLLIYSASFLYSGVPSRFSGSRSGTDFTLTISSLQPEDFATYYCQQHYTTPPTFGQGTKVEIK
# B11: SRP2900-G11 (antibody, IgG1, V domains shown)
# VH: B1 VH with L18S, N30Y, V33I, Y59D, D100I, L103V, S105G, P106E
# VL: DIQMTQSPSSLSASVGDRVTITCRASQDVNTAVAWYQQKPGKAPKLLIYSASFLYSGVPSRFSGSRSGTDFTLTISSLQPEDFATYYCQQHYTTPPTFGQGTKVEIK
# B12: SRP2900-H08 (antibody, IgG1, V domains shown)
# VH: B1 VH with N30S, Y59F, S75P, E89K, D100P
# VL: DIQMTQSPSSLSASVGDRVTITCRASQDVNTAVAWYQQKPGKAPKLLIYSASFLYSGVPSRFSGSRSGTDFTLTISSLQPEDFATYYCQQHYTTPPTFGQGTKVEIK
# B13: SRP2900-F07 (antibody, IgG1, V domains shown)
# VH: B1 VH with N30S, V33T, Y60H, D100P, L103V
# VL: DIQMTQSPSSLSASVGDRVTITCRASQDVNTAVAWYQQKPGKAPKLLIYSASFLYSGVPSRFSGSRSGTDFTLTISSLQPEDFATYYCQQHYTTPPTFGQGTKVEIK
# B14: SRP2900-G07 (antibody, IgG1, V domains shown)
# VH: B1 VH with N30S, D100P, S104T
# VL: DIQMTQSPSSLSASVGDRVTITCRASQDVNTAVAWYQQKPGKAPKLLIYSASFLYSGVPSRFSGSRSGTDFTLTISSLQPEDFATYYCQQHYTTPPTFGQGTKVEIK
# B15: SRP2900-G10 (antibody, IgG1, V domains shown)
# VH: B1 VH with N30P, V33I, D100I, L103V, S105G, P106E
# VL: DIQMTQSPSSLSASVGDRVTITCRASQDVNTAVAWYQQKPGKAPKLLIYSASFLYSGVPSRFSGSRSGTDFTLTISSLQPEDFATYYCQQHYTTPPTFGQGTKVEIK
# B16: SRP2900-A03 (antibody, IgG1, V domains shown)
# VH: EVQLVESGGGLVQPGGSLRLSCAASGFTIPSYWIHWVRQAPGKGLEWVGYIDPANGATYYADSVKGRFTISADTSKNTAYLQMNSLRAEDTAVYYCARADYFYVDEYLDYWGQGTLVTVSS
# VL: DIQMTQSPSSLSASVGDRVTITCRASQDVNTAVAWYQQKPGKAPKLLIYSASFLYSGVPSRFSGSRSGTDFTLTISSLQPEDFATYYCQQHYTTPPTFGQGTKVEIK
# B17: SRP2900-A06 (antibody, IgG1, V domains shown)
# VH: B16 VH with P30S, A54F, F102Y, L108W
# VL: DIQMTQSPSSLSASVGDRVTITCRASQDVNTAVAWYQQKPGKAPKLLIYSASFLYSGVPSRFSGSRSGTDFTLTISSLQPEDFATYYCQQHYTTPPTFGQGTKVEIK
# B18: SRP2900-A04 (antibody, IgG1, V domains shown)
# VH: B16 VH with P30S, S31G, A54Y, T78A, V104I, L108W
# VL: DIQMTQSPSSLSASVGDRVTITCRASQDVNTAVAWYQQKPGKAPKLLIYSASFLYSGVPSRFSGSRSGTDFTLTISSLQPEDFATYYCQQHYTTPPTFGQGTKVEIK
# B19: SRP2900-A07 (antibody, IgG1, V domains shown)
# VH: B16 VH with P30S, A54Y, A99S, F102Y, Y107F, L108F
# VL: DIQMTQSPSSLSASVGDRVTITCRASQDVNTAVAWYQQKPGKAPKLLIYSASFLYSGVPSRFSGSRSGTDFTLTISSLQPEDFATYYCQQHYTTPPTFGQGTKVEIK
# B20: SRP2900-E05 (antibody, IgG1, V domains shown)
# VH: EVQLVESGGGLVQPGGSLRLSCAASGFTISGYWIHWVRQAPGKGLEWVGYIDPANGFTYYADSVKGRFTISADTSKNTAYLQMNSLRAEDTAVYYCARDYGSVRVFLDYWGQGTLVTVSS
# VL: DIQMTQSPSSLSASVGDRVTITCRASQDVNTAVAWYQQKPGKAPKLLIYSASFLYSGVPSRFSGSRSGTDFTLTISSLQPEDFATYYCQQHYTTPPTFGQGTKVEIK
# B21: SRP2900-E09 (antibody, IgG1, V domains shown)
# VH: B20 VH with G31Q, A54Y, F57Y, Y80H, V103F, F106Q
# VL: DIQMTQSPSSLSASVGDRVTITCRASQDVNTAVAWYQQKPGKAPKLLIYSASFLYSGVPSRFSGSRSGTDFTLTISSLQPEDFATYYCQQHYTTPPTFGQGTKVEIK
# B22: SRP2900-H10 (antibody, IgG1, V domains shown)
# VH: B1 VH with N30S, Y57F, M83T, D100I, L103V, S105G, P106E
# VL: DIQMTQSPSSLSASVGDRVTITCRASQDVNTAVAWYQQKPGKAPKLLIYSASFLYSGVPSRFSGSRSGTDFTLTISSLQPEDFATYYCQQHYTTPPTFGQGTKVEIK
# B23: SRP2900-H04 (antibody, IgG1, V domains shown)
# VH: B1 VH with N30S, D31H, V33I, D100I, L103V, S105G, P106E
# VL: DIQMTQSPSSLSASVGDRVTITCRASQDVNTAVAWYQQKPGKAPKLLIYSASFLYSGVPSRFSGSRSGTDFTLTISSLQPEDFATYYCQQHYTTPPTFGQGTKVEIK
# B24: SRP2900-E08 (antibody, IgG1, V domains shown)
# VH: B20 VH with S30T, G31D, A54Y, F57Y, V103L, R104Q, L107I
# VL: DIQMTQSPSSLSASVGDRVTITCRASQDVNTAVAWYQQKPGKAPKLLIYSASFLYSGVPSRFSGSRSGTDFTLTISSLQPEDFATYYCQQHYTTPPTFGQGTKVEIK
# B25: SRP2900-E10 (antibody, IgG1, V domains shown)
# VH: B20 VH with G31D, F57Y, V103L, R104H, F106Q
# VL: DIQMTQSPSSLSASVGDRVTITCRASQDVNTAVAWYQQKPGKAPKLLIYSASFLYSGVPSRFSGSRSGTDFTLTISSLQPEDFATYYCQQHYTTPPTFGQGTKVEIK
# B26: SRP2900-F04 (antibody, IgG1, V domains shown)
# VH: B20 VH with G31D, A54Y, V103L, R104Q, L107I
# VL: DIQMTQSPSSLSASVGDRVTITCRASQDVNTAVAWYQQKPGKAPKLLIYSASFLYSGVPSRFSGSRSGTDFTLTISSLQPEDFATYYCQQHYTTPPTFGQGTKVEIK
# B27: SRP2900-E11 (antibody, IgG1, V domains shown)
# VH: B1 VH with N30S, D31Y, V33I, D100V, L103V, S105G, P106E
# VL: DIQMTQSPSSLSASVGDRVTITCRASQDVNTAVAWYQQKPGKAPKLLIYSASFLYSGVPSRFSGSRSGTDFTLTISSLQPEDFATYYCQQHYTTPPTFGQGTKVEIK
# B28: SRP2900-H05 (antibody, IgG1, V domains shown)
# VH: B1 VH with N30S, V33T, D100I, L103V, S105G, P106E
# VL: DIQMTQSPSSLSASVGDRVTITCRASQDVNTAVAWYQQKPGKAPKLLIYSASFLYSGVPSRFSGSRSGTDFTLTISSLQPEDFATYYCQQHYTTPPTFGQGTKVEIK
# B29: Conjugate 1: 2900-A02 Y180/F404-LP1 (antibody, human IgG1, kappa)
# heavy: MEVQLVESGGGLVQPGGSLRLSCAASGFTISGYIIHWVRQAPGKGLEWVGYIDPSNGYTYYADSVKGRFTISADTSKNTAYLQMNSLRAEDTAVYYCARDDQSLSSPFDYWGQGTLVTVSSASTKGPSVFPLAPSSKSTSGGTAALGCLVKDYFPEPVTVSWNSGALTSGVHTFPAVLQSSGLSLSSVVTVPSSSLGTQTYICNVNHKPSNTKVDKKVEPKSCDKTHTCPPCPAPELLGGPSVFLFPPKPKDTLMISRTPEVTCVVVDVSHEDPEVKFNWYVDGVEVHNAKTKPREEQYNSTYRVVSVLTVLHQDWLNGKEYKCKVSNKALPAPIEKTISKAKGQPREPQVYTLPPSREEMTKNQVSLTCLVKGFYPSDIAVEWESNGQPENNYKTTPPVLDSDGSFLYSKLTVDKSRWQQGNVFSCSVMHEALHNHYTQKSLSLSPGK
# light: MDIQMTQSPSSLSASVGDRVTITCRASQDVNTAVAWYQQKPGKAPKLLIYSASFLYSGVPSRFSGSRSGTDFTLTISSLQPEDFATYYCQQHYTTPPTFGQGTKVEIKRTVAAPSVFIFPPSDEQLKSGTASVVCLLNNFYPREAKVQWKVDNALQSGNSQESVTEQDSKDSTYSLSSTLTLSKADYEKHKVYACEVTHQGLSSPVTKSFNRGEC
# modifications: pAMF at Y180 and F404 (EU), each linked to LP1 (DBCO-Valcit-pAB-hemiasterlin)
# B30: Conjugate 3: 2900-A02 Y180/F404/k42-LP1 (antibody, human IgG1, kappa)
# heavy: B29 heavy
# light: MDIQMTQSPSSLSASVGDRVTITCRASQDVNTAVAWYQQKPGAPKLLIYSASFLYSGVPSRFSGSRSGTDFTLTISSLQPEDFATYYCQQHYTTPPTFGQGTKVEIKRTVAAPSVFIFPPSDEQLKSGTASVVCLLNNFYPREAKVQWKVDNALQSGNSQESVTEQDSKDSTYSLSSTLTLSKADYEKHKVYACEVTHQGLSSPVTKSFNRGEC
# modifications: pAMF at K42 linked to LP1; pAMF at Y180 and F404 (EU), each linked to LP1 (DBCO-Valcit-pAB-hemiasterlin)
# B31: Conjugate 5: 2900-A02 Y180/F404/k42/E161-LP1 (antibody, human IgG1, kappa)
# heavy: B29 heavy
# light: MDIQMTQSPSSLSASVGDRVTITCRASQDVNTAVAWYQQKPGAPKLLIYSASFLYSGVPSRFSGSRSGTDFTLTISSLQPEDFATYYCQQHYTTPPTFGQGTKVEIKRTVAAPSVFIFPPSDEQLKSGTASVVCLLNNFYPREAKVQWKVDNALQSGNSQSVTEQDSKDSTYSLSSTLTLSKADYEKHKVYACEVTHQGLSSPVTKSFNRGEC
# modifications: pAMF at K42 and E161, each linked to LP1; pAMF at Y180 and F404 (EU), each linked to LP1 (DBCO-Valcit-pAB-hemiasterlin)
# Target: tissue factor reagent of the Tissue Factor Activity Assay Kit (Abcam #ab108906) (UniProt P13726 33-295, limits assumed)
# Assay: cell-based or functional assay
# Sequence of tissue factor reagent of the Tissue Factor Activity Assay Kit (Abcam #ab108906) (P13726 33-295 limits assumed): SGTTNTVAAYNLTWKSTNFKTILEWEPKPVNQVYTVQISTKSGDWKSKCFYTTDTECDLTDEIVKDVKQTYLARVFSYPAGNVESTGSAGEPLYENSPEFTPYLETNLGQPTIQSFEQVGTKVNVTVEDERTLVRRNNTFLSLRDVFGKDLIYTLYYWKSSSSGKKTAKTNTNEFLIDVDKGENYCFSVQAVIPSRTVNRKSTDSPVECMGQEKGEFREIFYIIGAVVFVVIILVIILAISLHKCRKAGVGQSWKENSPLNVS
row,Binder,"FX conversion (% inhibition), 1000 nM antibody"
1,B1,25.1%
2,B2,30.5%
3,B3,31.2%
4,B4,21.4%
5,B5,40.4%
6,B6,30.4%
7,B7,25.1%
8,B8,38.9%
9,B9,32.5%
10,B10,40.8%
11,B11,40.9%
12,B12,32.2%
13,B13,30.3%
14,B14,38.3%
15,B15,48.7%
16,B16,26.3%
17,B17,36.8%
18,B18,38.6%
19,B19,28.4%
20,B20,23.5%
21,B21,32.2%
22,B22,45.4%
23,B23,36.3%
24,B24,45.8%
25,B25,50.7%
26,B26,47.3%
27,B27,39.9%
28,B28,36.2%

# Target: human tissue factor on cells (human, UniProt P13726 33-295)
# Assay: cell-based or functional assay
# Sequence of human tissue factor on cells (P13726 33-295 limits assumed): as above
Binder,"cell killing EC50, HCC1954 (TF+++)","cell killing EC50, HCC1954, with 0.5 uM unconjugated mAb 36","cell killing EC50, NCI-H292 (TF++++)","cell killing EC50, NCI-H1975 (TF++)","cell killing EC50, NCI-H1975, with 0.5 uM unconjugated mAb 36","cell killing Span, HCC1954 (TF+++)","cell killing Span, NCI-H292 (TF++++)","cell killing Span, NCI-H1975 (TF++)","cell killing EC50, HCC1954, with 0.5 uM unconjugated mAb 39","cell killing EC50, NCI-H292, with 0.5 uM unconjugated mAb 39"
B29,0.064 nM,> 100 nM,0.055 nM,~25 nM,> 100 nM,95%,85%,62%,,
B30,0.073 nM,,0.048 nM,~7 nM,,93%,82%,68%,> 100 nM,> 100 nM
B31,0.08 nM,,0.045 nM,~4.4 nM,,91%,87%,72%,,

# Same assay, conditions: not given
Binder,"cell killing EC50, NCI-H1975, with 0.5 uM unconjugated mAb 39","cell killing EC50, HCC1954, with 0.5 uM unconjugated mAb 38","cell killing EC50, NCI-H292, with 0.5 uM unconjugated mAb 38","cell killing EC50, NCI-H1975, with 0.5 uM unconjugated mAb 38"
B30,> 100 nM,,,
B31,,> 100 nM,> 100 nM,> 100 nM
